Data taken from patent EP4786492A1.
Blank lines part the entries; values can stand above or below the binder they belong to.

How the values were obtained:
[1] = molecular target: DLL3 endogenously expressed on NCI-H82 cells (UniProt Q9NYJ7); test: FACS on NCI-H82 cells; antibody 100 nM
[2] = molecular target: DLL3 endogenously expressed on NCI-H82 cells (UniProt Q9NYJ7); test: FACS on NCI-H82 cells; antibody 0.00128 nM
[3] = molecular target: human DLL3 protein expressed on CHO-K1 recombinant cells (human DLL3 extracellular segment fused to EpCAM transmembrane and intracellular regions) (human) (UniProt Q9NYJ7); test: FACS, CHO-K1 hDLL3 cells, 0.032 nM antibody
human DLL3 protein expressed on CHO-K1 recombinant cells (human DLL3 extracellular segment fused to EpCAM transmembrane and intracellular regions) (human), sequence (Q9NYJ7 other isoform, or with tags, fused parts or gaps limits assumed): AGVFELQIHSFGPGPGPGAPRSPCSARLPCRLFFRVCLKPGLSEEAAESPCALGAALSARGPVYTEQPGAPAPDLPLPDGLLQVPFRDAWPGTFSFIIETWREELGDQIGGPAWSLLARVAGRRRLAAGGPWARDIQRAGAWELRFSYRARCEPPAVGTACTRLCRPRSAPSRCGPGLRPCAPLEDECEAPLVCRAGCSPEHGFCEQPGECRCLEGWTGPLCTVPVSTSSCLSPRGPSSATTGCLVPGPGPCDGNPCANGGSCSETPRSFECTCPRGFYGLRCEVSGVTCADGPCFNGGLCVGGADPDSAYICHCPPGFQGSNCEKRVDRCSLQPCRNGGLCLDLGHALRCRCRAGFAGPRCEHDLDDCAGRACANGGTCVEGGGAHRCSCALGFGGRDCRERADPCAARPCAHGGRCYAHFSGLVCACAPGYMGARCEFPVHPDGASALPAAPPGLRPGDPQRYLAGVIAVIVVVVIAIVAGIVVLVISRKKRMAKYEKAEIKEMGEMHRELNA

[4] = molecular target: monkey DLL3 on CHO-K1-cyno DLL3 cells (cynomolgus monkey); test: FACS, CHO-K1-cyno DLL3 cells, 0.0064 nM antibody
monkey DLL3 on CHO-K1-cyno DLL3 cells (cynomolgus monkey), sequence (chain, as listed by the source limits assumed): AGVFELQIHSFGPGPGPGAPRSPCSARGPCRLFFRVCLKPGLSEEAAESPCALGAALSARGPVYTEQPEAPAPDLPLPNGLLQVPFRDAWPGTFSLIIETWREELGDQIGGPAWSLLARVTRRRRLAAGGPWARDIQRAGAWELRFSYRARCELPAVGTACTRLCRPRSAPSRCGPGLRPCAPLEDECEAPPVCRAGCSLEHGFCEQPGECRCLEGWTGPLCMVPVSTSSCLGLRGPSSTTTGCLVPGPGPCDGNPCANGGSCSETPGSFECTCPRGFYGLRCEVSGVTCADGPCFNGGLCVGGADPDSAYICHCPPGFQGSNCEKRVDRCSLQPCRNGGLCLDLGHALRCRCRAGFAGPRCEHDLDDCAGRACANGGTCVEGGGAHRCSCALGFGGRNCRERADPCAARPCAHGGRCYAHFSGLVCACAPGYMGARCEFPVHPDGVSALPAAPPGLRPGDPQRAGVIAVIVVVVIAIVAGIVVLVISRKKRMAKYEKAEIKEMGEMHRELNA

[5] = molecular target: human DLL3 protein expressed on CHO-K1 recombinant cells (human DLL3 extracellular segment fused to EpCAM transmembrane and intracellular regions) (human) (UniProt Q9NYJ7); test: FACS, CHO-K1 hDLL3 cells, 4 nM antibody
[6] = molecular target: monkey DLL3 on CHO-K1-cyno DLL3 cells (cynomolgus monkey); test: FACS, CHO-K1-cyno DLL3 cells, 0.00128 nM antibody
[7] = molecular target: monkey DLL3 on CHO-K1-cyno DLL3 cells (cynomolgus monkey); test: FACS, CHO-K1-cyno DLL3 cells, 0.16 nM antibody
[8] = molecular target: monkey DLL3 on CHO-K1-cyno DLL3 cells (cynomolgus monkey); test: FACS, CHO-K1-cyno DLL3 cells, 0.032 nM antibody
[9] = molecular target: DLL3 endogenously expressed on NCI-H82 cells (UniProt Q9NYJ7); test: FACS on NCI-H82 cells; antibody 0.032 nM
[10] = molecular target: human DLL4 protein (Acro, Cat. No. DL4-H5227) (human) (UniProt Q9NR61); test: ELISA, coated hDLL4; maximum over 0.1, 1, 10, 100 nM antibody
human DLL4 protein (Acro, Cat. No. DL4-H5227) (human), sequence (Q9NR61 27-524 limits assumed): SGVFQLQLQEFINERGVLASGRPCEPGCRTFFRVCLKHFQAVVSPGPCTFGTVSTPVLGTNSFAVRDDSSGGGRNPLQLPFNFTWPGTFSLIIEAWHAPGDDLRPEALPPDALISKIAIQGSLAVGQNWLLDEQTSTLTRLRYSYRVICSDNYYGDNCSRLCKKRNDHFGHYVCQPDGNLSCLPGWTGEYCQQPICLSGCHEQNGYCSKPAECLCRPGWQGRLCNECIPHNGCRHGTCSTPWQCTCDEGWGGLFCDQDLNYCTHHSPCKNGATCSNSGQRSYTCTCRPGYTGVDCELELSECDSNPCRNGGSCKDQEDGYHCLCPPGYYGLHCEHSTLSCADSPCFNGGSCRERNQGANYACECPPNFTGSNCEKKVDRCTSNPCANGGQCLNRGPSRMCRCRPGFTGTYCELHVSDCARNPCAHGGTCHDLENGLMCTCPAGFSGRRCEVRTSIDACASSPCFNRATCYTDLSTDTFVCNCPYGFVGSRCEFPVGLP

[11] = molecular target: DLL3 endogenously expressed on NCI-H82 cells (UniProt Q9NYJ7); test: FACS on NCI-H82 cells; antibody 20 nM
[12] = molecular target: DLL3 endogenously expressed on NCI-H82 cells (UniProt Q9NYJ7); test: FACS on NCI-H82 cells; antibody 0.0064 nM
[13] = molecular target: human DLL3 protein expressed on CHO-K1 recombinant cells (human DLL3 extracellular segment fused to EpCAM transmembrane and intracellular regions) (human) (UniProt Q9NYJ7); test: FACS, CHO-K1 hDLL3 cells, 100 nM antibody
[14] = molecular target: human delta-like ligand 3 (DLL3) on SHP77 cells (human) (UniProt Q9NYJ7); test: FACS on SHP77 cells
human delta-like ligand 3 (DLL3) on SHP77 cells (human), sequence (Q9NYJ7 27-618, stated change not applied): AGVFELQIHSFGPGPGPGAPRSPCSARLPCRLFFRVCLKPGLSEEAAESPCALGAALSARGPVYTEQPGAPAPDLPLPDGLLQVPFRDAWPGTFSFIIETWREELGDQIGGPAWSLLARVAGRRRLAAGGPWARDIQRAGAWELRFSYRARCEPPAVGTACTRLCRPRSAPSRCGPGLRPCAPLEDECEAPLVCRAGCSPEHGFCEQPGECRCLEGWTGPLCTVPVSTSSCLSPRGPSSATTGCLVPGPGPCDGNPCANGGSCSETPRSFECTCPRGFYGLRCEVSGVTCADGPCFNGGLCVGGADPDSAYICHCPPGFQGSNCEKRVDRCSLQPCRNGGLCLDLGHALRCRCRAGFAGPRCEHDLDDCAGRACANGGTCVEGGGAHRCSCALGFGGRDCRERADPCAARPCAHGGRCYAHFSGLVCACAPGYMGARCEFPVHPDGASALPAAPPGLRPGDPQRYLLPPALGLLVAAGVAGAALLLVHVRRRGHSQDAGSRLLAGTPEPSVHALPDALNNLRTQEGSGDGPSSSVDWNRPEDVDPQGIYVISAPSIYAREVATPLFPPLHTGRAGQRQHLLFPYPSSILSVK

[15] = molecular target: human DLL3 protein expressed on CHO-K1 recombinant cells (human DLL3 extracellular segment fused to EpCAM transmembrane and intracellular regions) (human) (UniProt Q9NYJ7); test: FACS, CHO-K1 hDLL3 cells, 20 nM antibody
[16] = molecular target: human DLL3 protein expressed on CHO-K1 recombinant cells (human DLL3 extracellular segment fused to EpCAM transmembrane and intracellular regions) (human) (UniProt Q9NYJ7); test: FACS, CHO-K1 hDLL3 cells, 0.16 nM antibody
[17] = molecular target: DLL3 endogenously expressed on NCI-H82 cells (UniProt Q9NYJ7); test: FACS on NCI-H82 cells; antibody 0.16 nM
[18] = molecular target: monkey DLL3 on CHO-K1-cyno DLL3 cells (cynomolgus monkey); test: FACS, CHO-K1-cyno DLL3 cells, 100 nM antibody
[19] = molecular target: monkey DLL3 on CHO-K1-cyno DLL3 cells (cynomolgus monkey); test: FACS, CHO-K1-cyno DLL3 cells, 0.8 nM antibody
[20] = molecular target: human DLL3 protein expressed on CHO-K1 recombinant cells (human DLL3 extracellular segment fused to EpCAM transmembrane and intracellular regions) (human) (UniProt Q9NYJ7); test: FACS, CHO-K1 hDLL3 cells, 0.0064 nM antibody
[21] = molecular target: DLL3 endogenously expressed on NCI-H82 cells (UniProt Q9NYJ7); test: FACS on NCI-H82 cells; antibody 0.8 nM
[22] = molecular target: monkey DLL3 on CHO-K1-cyno DLL3 cells (cynomolgus monkey); test: FACS, CHO-K1-cyno DLL3 cells, 20 nM antibody
[23] = molecular target: DLL3 endogenously expressed on NCI-H82 cells (UniProt Q9NYJ7); test: FACS on NCI-H82 cells; antibody 4 nM
[24] = molecular target: monkey DLL3 on CHO-K1-cyno DLL3 cells (cynomolgus monkey); test: FACS, CHO-K1-cyno DLL3 cells, 4 nM antibody
[25] = molecular target: human DLL3 protein expressed on CHO-K1 recombinant cells (human DLL3 extracellular segment fused to EpCAM transmembrane and intracellular regions) (human) (UniProt Q9NYJ7); test: FACS, CHO-K1 hDLL3 cells, 0.8 nM antibody
[26] = molecular target: human DLL3 protein expressed on CHO-K1 recombinant cells (human DLL3 extracellular segment fused to EpCAM transmembrane and intracellular regions) (human) (UniProt Q9NYJ7); test: FACS, CHO-K1 hDLL3 cells, 0.00128 nM antibody
[27] = molecular target: human DLL1 protein (Acro, Cat. No. DL1-H52H8) (human) (UniProt O00548); test: ELISA, coated hDLL1; maximum over 0.1, 1, 10, 100 nM antibody
human DLL1 protein (Acro, Cat. No. DL1-H52H8) (human), sequence (O00548 18-540 limits assumed): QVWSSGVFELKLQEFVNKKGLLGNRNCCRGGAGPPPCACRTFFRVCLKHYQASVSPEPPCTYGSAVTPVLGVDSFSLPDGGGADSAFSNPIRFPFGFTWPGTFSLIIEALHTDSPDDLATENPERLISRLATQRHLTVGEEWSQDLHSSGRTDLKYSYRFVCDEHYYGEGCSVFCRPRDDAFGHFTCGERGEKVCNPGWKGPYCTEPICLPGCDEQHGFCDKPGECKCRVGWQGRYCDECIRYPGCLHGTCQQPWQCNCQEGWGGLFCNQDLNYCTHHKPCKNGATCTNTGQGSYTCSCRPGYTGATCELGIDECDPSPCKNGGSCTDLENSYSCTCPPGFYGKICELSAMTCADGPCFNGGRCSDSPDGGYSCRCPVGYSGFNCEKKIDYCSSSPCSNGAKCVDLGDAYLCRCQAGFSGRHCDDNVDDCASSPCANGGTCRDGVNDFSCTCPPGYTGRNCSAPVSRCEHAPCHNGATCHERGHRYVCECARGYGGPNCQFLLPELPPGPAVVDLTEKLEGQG

[28] = molecular target: human DLL3 protein (extracellular segment, His tag) (human) (UniProt Q9NYJ7); test: SPR (Biacore 8K), antibody captured on Protein A chip, DLL3 antigen in solution, 1:1 Langmuir fit
human DLL3 protein (extracellular segment, His tag) (human), sequence (Q9NYJ7 27-492): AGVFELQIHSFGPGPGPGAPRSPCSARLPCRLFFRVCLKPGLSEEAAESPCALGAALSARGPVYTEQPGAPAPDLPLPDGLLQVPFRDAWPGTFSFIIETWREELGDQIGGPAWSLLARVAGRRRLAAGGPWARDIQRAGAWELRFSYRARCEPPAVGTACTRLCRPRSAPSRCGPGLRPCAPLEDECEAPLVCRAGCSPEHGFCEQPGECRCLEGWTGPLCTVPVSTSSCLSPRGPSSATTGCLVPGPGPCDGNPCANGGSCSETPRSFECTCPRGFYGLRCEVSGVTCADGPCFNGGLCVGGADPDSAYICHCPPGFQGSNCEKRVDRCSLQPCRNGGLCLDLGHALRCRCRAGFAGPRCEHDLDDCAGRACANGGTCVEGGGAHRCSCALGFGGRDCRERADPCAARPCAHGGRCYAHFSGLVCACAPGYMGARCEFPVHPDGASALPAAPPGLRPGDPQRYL

DLL3 endogenously expressed on NCI-H82 cells, sequence (Q9NYJ7 27-618): as the sequence (Q9NYJ7 27-618, stated change not applied) above

MFI [1]: 1860
MFI [2]: 102
MFI [3]: 221 MFI
MFI [4]: 159 MFI
MFI [5]: 6530 MFI
MFI [6]: 116 MFI
MFI [7]: 711 MFI
MFI [8]: 286 MFI
MFI [9]: 114
Emax of OD450 nm binding value [10]: 0.69 OD450 nm
MFI [11]: 1020
MFI [12]: 106
MFI [13]: 8400 MFI
MFI at 0.00128 nM [14]: 121 MFI
MFI at 0.0064 nM [14]: 120 MFI
MFI at 0.032 nM [14]: 123 MFI
MFI at 0.16 nM [14]: 139 MFI
MFI at 0.8 nM [14]: 186 MFI
MFI at 4 nM [14]: 333 MFI
MFI at 20 nM [14]: 793 MFI
MFI at 100 nM [14]: 1530 MFI
MFI [15]: 7750 MFI
MFI [16]: 521 MFI
MFI [17]: 149
MFI [18]: 18400 MFI
MFI [19]: 2940 MFI
MFI [20]: 127 MFI
MFI [21]: 245
MFI [22]: 18400 MFI
MFI [23]: 539
MFI [24]: 12100 MFI
MFI [25]: 2170 MFI
MFI [26]: 103 MFI
Emax of OD450 nm binding value [27]: 0.24 OD450 nm
B1: Hab008L1H5-hFc (scFv, part only; not given: VL-VH linker and human IgG1 Fc, V domains shown, not shown: another chain or arm of the molecule; a dimerising Fc or GST; small tags and cut ends)
VL: DIQMTQSPSSLSASVGDRVTITCKASQNVGTAVAWYQQKPGKSPKLLIFSASIRYTGVPSRFSGSGSGTDFTLTISSLQPEDFATYYCQQYSSSPYTFGGGTKVEIK
VH: EVQLVQSGAEVKKPGASVKVSCKASGYTFTDYYMNWVRRAPGQRLEWMGIINPYNGGTSYNQKFRGRVTITVDKSASTAYMELSSLRSEDTAVYYCSRYDYDYDVEGAMDYWGQGTTVTVSS

MFI [1]: 1340
MFI [2]: 99
MFI [3]: 235 MFI
MFI [4]: 142 MFI
MFI [5]: 7140 MFI
MFI [6]: 103 MFI
MFI [7]: 724 MFI
MFI [8]: 252 MFI
MFI [9]: 91
Emax of OD450 nm binding value [10]: 0.18 OD450 nm
MFI [11]: 674
MFI [12]: 90
Kd [28]: 902 pM
koff [28]: 0.000312 s⁻¹
kon [28]: 345000 M⁻¹ s⁻¹
MFI [13]: 8950 MFI
MFI at 0.00128 nM [14]: 117 MFI
MFI at 0.0064 nM [14]: 117 MFI
MFI at 0.032 nM [14]: 122 MFI
MFI at 0.16 nM [14]: 133 MFI
MFI at 0.8 nM [14]: 194 MFI
MFI at 4 nM [14]: 330 MFI
MFI at 20 nM [14]: 634 MFI
MFI at 100 nM [14]: 974 MFI
MFI [15]: 8320 MFI
MFI [16]: 671 MFI
MFI [17]: 102
MFI [18]: 21600 MFI
MFI [19]: 3470 MFI
MFI [20]: 131 MFI
MFI [21]: 152
MFI [22]: 20300 MFI
MFI [23]: 388
MFI [24]: 12900 MFI
MFI [25]: 2370 MFI
MFI [26]: 100 MFI
Emax of OD450 nm binding value [27]: 0.11 OD450 nm
B2: Hab008L3H5-hFc (scFv, part only; not given: scFv linker and human IgG1 Fc, V domains shown, not shown: another chain or arm of the molecule; a dimerising Fc or GST; small tags and cut ends)
VL: DIVMTQSPDSLAVSLGERATINCKASQNVGTAVAWYQQKPGQSPKLLIFSASIRYTGVPDRFSGSGSGTDFTLTISSLQAEDVAVYYCQQYSSSPYTFGGGTKVEIK
VH: B1 VH

MFI [3]: 1500 MFI
MFI [5]: 12800 MFI
MFI [13]: 13400 MFI
MFI at 0.00128 nM [14]: 105 MFI
MFI at 0.0064 nM [14]: 128 MFI
MFI at 0.032 nM [14]: 196 MFI
MFI at 0.16 nM [14]: 396 MFI
MFI at 0.8 nM [14]: 673 MFI
MFI at 4 nM [14]: 769 MFI
MFI at 20 nM [14]: 852 MFI
MFI at 100 nM [14]: 954 MFI
MFI [15]: 13300 MFI
MFI [16]: 5730 MFI
MFI [20]: 458 MFI
MFI [25]: 11800 MFI
MFI [26]: 204 MFI
B3: Hab009VL3aVH1-hFc (Fc fusion, part only; not given: Linker and human IgG1 Fc, not shown: a dimerising Fc or GST)
chain, part: DIVMTQSPLSLPVTPGEPASISCRASQTISDYLHWYLQKSHQSPQLLIKYASQSISGVPDRFSGSGSGTDFTLKISRVEAEDVGVYYCQQGHSFPLTFGQGTKLEIKEVQLVQSGAEVKKPGASVKVSCKASGYTFTSYWMHWVRQAPGQRLEWMGTIYPGNSDTRYNQKFKDRVTITADTSASTAYMELSSLRSEDTAVYYCTRSYDYGDLDYWGQGTTVTVSS
